Source: patent publication US20240391961A1 (OREGON STATE UNIVERSITY, published 2024)

T1: 14-3-3ζ nhpSer58 with a FLAG tag at its N-terminus (Homo sapiens (Human), UniProt P63104 1-245)
T1 sequence: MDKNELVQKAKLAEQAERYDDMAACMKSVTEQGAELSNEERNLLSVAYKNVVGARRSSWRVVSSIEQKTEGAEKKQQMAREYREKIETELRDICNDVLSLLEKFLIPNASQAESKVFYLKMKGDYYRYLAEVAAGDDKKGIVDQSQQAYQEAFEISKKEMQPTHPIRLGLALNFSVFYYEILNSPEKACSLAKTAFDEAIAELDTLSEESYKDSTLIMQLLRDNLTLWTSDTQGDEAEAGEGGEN


How the values were obtained:
[1] = biological target: T1, 14-3-3ζ nhpSer58 with a FLAG tag at its …
[2] = biological target: the molecule itself; assay: SEC-MALS (homodimer)
Description: 14-3-3 dimerization can be regulated by phosphorylation of a serine residue at the dimer interface, e.g., serine residue 58 (Ser58).

Binder	FC [1]	binding result [2]
2-amino-3-ketobutyrate coenzyme A ligase, mitochondrial [OS = Homo sapiens] (other, UniProt O75600 22-419, looked up) SALAQLRGILEGELEGIRGAGTWKSERVITSRQGPHIRVDGVSGGILNFCANNYLGLSSHPEVIQAGLQALEEFGAGLSSVRFICGTQSIHKNLEAKIARFHQREDAILYPSCYDANAGLFEALLTPEDAVLSDELNHASIIDGIRLCKAHKYRYRHLDMADLEAKLQEAQKHRLRLVATDGAFSMDGDIAPLQEICCLASRYGALVFMDECHATGFLGPTGRGTDELLGVMDQVTIINSTLGKALGGASGGYTTGPGPLVSLLRQRARPYLFSNSLPPAVVGCASKALDLLMGSNTIVQSMAAKTQRFRSKMEAAGFTISGASHPICPVMLGDARLASRMADDMLKRGIFVIGFSYPVVPKGKARIRVQISAVHSEEDIDRCVEAFVEVGRLHGALP	0.0267 fold	
14-3-3 protein beta/alpha [OS = Homo sapiens] (other, UniProt P31946 1-246, looked up) MTMDKSELVQKAKLAEQAERYDDMAAAMKAVTEQGHELSNEERNLLSVAYKNVVGARRSSWRVISSIEQKTERNEKKQQMGKEYREKIEAELQDICNDVLELLDKYLIPNATQPESKVFYLKMKGDYFRYLSEVASGDNKQTTVSNSQQAYQEAFEISKKEMQPTHPIRLGLALNFSVFYYEILNSPEKACSLAKTAFDEAIAELDTLNEESYKDSTLIMQLLRDNLTLWTSENQGDEGDAGEGEN	0.0486 fold	
Atherin [OS = Homo sapiens] (other, UniProt Q6SPF0 1-538, looked up) MAGPPALPPPETAAAATTAAAASSSAASPHYQEWILDTIDSLRSRKARPDLERICRMVRRRHGPEPERTRAELEKLIQQRAVLRVSYKGSISYRNAARVQPPRRGATPPAPPRAPRGAPAAAAAAAPPPTPAPPPPPAPVAAAAPARAPRAAAAAATAPPSPGPAQPGPRAQRAAPLAAPPPAPAAPPAVAPPAGPRRAPPPAVAAREPPLPPPPQPPAPPQQQQPPPPQPQPPPEGGAVRAGGAARPVSLREVVRYLGGSGGAGGRLTRGRVQGLLEEEAAARGRLERTRLGALALPRGDRPGRAPPAASARPSRSKRGGEERVLEKEEEEDDDEDEDEEDDVSEGSEVPESDRPAGAQHHQLNGERGPQSAKERVKEWTPCGPHQGQDEGRGPAPGSGTRQVFSMAAMNKEGGTASVATGPDSPSPVPLPPGKPALPGADGTPFGCPPGRKEKPSDPVEWTVMDVVEYFTEAGFPEQATAFQEQEIDGKSLLLMQRTDVLTGLSIRLGPALKIYEHHIKVLQQGHFEDDDPDGFLG	0.0524 fold	
14-3-3 protein gamma [OS = Homo sapiens] (other, UniProt P61981 1-247, looked up) MVDREQLVQKARLAEQAERYDDMAAAMKNVTELNEPLSNEERNLLSVAYKNVVGARRSSWRVISSIEQKTSADGNEKKIEMVRAYREKIEKELEAVCQDVLSLLDNYLIKNCSETQYESKVFYLKMKGDYYRYLAEVATGEKRATVVESSEKAYSEAHEISKEHMQPTHPIRLGLALNYSVFYYEIQNAPEQACHLAKTAFDDAIAELDTLNEDSYKDSTLIMQLLRDNLTLWTSDQQDDDGGEGNN	0.0531 fold	
14-3-3ζ S58E (other, also called S58E phosphomimetic; 14-3-3ζ with glutamate at residue 58) MDKNELVQKAKLAEQAERYDDMAACMKSVTEQGAELSNEERNLLSVAYKNVVGARRSEWRVVSSIEQKTEGAEKKQQMAREYREKIETELRDICNDVLSLLEKFLIPNASQAESKVFYLKMKGDYYRYLAEVAAGDDKKGIVDQSQQAYQEAFEISKKEMQPTHPIRLGLALNFSVFYYEILNSPEKACSLAKTAFDEAIAELDTLSEESYKDSTLIMQLLRDNLTLWTSDTQGDEAEAGEGGEN		binds
14-3-3 protein eta [OS = Homo sapiens] (other, UniProt Q04917 2-246, looked up) GDREQLLQRARLAEQAERYDDMASAMKAVTELNEPLSNEDRNLLSVAYKNVVGARRSSWRVISSIEQKTMADGNEKKLEKVKAYREKIEKELETVCNDVLSLLDKFLIKNCNDFQYESKVFYLKMKGDYYRYLAEVASGEKKNSVVEASEAAYKEAFEISKEQMQPTHPIRLGLALNFSVFYYEIQNAPEQACLLAKQAFDDAIAELDTLNEDSYKDSTLIMQLLRDNLTLWTSDQQDEEAGEGN	0.0561 fold	
Cell division cycle 5-like protein [OS = Homo sapiens] (other, UniProt Q99459 1-802, looked up) MPRIMIKGGVWRNTEDEILKAAVMKYGKNQWSRIASLLHRKSAKQCKARWYEWLDPSIKKTEWSREEEEKLLHLAKLMPTQWRTIAPIIGRTAAQCLEHYEFLLDKAAQRDNEEETTDDPRKLKPGEIDPNPETKPARPDPIDMDEDELEMLSEARARLANTQGKKAKRKAREKQLEEARRLAALQKRRELRAAGIEIQKKRKRKRGVDYNAEIPFEKKPALGFYDTSEENYQALDADFRKLRQQDLDGELRSEKEGRDRKKDKQHLKRKKESDLPSAILQTSGVSEFTKKRSKLVLPAPQISDAELQEVVKVGQASEIARQTAEESGITNSASSTLLSEYNVTNNSVALRTPRTPASQDRILQEAQNLMALTNVDTPLKGGLNTPLHESDFSGVTPQRQVVQTPNTVLSTPFRTPSNGAEGLTPRSGTTPKPVINSTPGRTPLRDKLNINPEDGMADYSDPSYVKQMERESREHLRLGLLGLPAPKNDFEIVLPENAEKELEEREIDDTYIEDAADVDARKQAIRDAERVKEMKRMHKAVQKDLPRPSEVNETILRPLNVEPPLTDLQKSEELIKKEMITMLHYDLLHHPYEPSGNKKGKTVGFGTNNSEHITYLEHNPYEKFSKEELKKAQDVLVQEMEVVKQGMSHGELSSEAYNQVWEECYSQVLYLPGQSRYTRANLASKKDRIESLEKRLEINRGHMTTEAKRAAKMEKKMKILLGGYQSRAMGLMKQLNDLWDQIEQAHLELRTFEELKKHEDSAIPRRLECLKEDVQRQQEREKELQHRYADLLLEKETLKSKF	0.0607 fold	
Pre-mRNA-splicing factor SLU7 [OS = Homo sapiens] (other, UniProt O95391 2-586, looked up) SATVVDAVNAAPLSGSKEMSLEEPKKMTREDWRKKKELEEQRKLGNAPAEVDEEGKDINPHIPQYISSVPWYIDPSKRPTLKHQRPQPEKQKQFSSSGEWYKRGVKENSIITKYRKGACENCGAMTHKKKDCFERPRRVGAKFTGTNIAPDEHVQPQLMFDYDGKRDRWNGYNPEEHMKIVEEYAKVDLAKRTLKAQKLQEELASGKLVEQANSPKHQWGEEEPNSQMEKDHNSEDEDEDKYADDIDMPGQNFDSKRRITVRNLRIREDIAKYLRNLDPNSAYYDPKTRAMRENPYANAGKNPDEVSYAGDNFVRYTGDTISMAQTQLFAWEAYDKGSEVHLQADPTKLELLYKSFKVKKEDFKEQQKESILEKYGGQEHLDAPPAELLLAQTEDYVEYSRHGTVIKGQERAVACSKYEEDVKIHNHTHIWGSYWKEGRWGYKCCHSFFKYSYCTGEAGKEIVNSEECIINEITGEESVKKPQTLMELHQEKLKEEKKKKKKKKKKHRKSSSDSDDEEKKHEKLKKALNAEEARLLHVKETMQIDERKRPYNSMYETREPTEEEMEAYRMKRQRPDDPMASFLGQ	0.0628 fold	
Transformer-2 protein homolog alpha [OS = Homo sapiens] (other, UniProt Q13595 2-282, looked up) SDVEENNFEGRESRSQSKSPTGTPARVKSESRSGSRSPSRVSKHSESHSRSRSKSRSRSRRHSHRRYTRSRSHSHSHRRRSRSRSYTPEYRRRRSRSHSPMSNRRRHTGSRANPDPNTCLGVFGLSLYTTERDLREVFSRYGPLSGVNVVYDQRTGRSRGFAFVYFERIDDSKEAMERANGMELDGRRIRVDYSITKRAHTPTPGIYMGRPTHSGGGGGGGGGGGGGGGGRRRDSYYDRGYDRGYDRYEDYDYRYRRRSPSPYYSRYRSRSRSRSYSPRRY	0.0906 fold	
